The values that follow come from paper PMC12579237, “Development of antibody drug conjugates targeting epithelial membrane protein 2-highly expressed lung cancer” (Cell Death & Disease, 2025).

The target in test [1] is T1, hEMP2-GFP (Homo sapiens, UniProt P54851).
T1 construct: epithelial membrane protein 2 (EMP2), human, fused to GFP; also called human EMP2-GFP; pCDH-EMP2-GFP; source: HEK293T, transfected, in lysate; A549, transfected, in cells; stably overexpressed (lentivirus) in A549, NCI-H520 and LLC cells

In test [2] the target is T1, hEMP2-GFP. The test is described as follows: immunostaining of cells or tissue; immunofluorescence of A549 cells transfected with hEMP2-GFP, stained with FK002; colocalization quantified. The settings on record: one partner purified.
Test [3] addresses T2, Peptide 4. KFYPVTREGS (129-138aa) (Homo sapiens).
T2 construct: human EMP2 residues 129-138; source: synthetic peptide (GenScript)
T2 chain: KFYPVTREGS
The test is described as follows: far-Western, overlay or dot blot; dot blot: 2.5 µL of each sample spotted on nitrocellulose (legend: 1 μg/spot), probed with FK002 antibody and HRP-conjugated mouse secondary antibody. The settings on record: both partners purified.

The target of test [4] is T3, Purified EMP2 protein (human, UniProt P54851 1-167).
T3 chain: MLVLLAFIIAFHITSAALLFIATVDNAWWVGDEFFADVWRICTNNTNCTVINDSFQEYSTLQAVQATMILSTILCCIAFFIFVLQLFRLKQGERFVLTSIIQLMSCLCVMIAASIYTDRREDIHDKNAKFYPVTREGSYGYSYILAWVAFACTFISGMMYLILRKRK
Briefly: SPR. Background: In SPR one partner is held on a chip, and binding of the other changes the refractive index at the surface.

Test [5] concerns the target T3, Purified EMP2 protein. The test is described as follows: SPR; Biacore 8K; EMP2 protein (approximately 12,000 RU) amine coupled; FK002Ab injected at 8 concentrations (0.02-1 μM), 20 μL/min, 100 s association, 180 s dissociation; PBS pH 7.2-7.4 with 1% dimethyl sulfoxide.
Test [6] has as its target T4, epithelial membrane protein 2 (EMP2), endogenous in NCI-H226 cells (Homo sapiens, UniProt P54851).
T4 construct: epithelial membrane protein 2 (EMP2), human, endogenous in NCI-H226 lung squamous carcinoma cells; On live cells in the flow cytometry; in whole-cell lysate in the immunoprecipitation; also called human EMP2; source: endogenous, NCI-H226 whole-cell lysate; endogenous, on NCI-H226 cells
The test is described as follows: affinity purification with mass spectrometry; FK002 antibody incubated with NCI-H226 whole-cell lysate; immunoprecipitate silver stained, qualitative mass spectrometry. The settings on record: one partner purified.

B1: FK002-exatecan (antibody, V domains shown)
VH: DVQLQESGPGLVKPSQSLSLTCSVTGYSITSGYYWNWIRQFPGNKLEWMGYIRYDGRNNYNPSLKNRISITRDTSKNQFFLKLNSVTTEDTATYYCARDFDYWGQGTTLTVSS
VL: DIVLTQSPASLAVSLGQRATISCRASESVDTYGNSFMHWYQQKPGQPPKLLIYRASNLESGIPARFSGSGSRTDFTLTINPVEADDVATYYCHQSNEDPDTFGGGTKLEIKR
modifications: exatecan conjugated by the T1000 (Mc-VA-PABC(PSAR1o)) linker to the fully reduced antibody; DAR approximately 8 per antibody; residues not stated | exatecan conjugated by the T1000 (Mc-VA-PABC(PSAR1o)) linker to the fully reduced antibody; DAR approximately 8 per antibody; residues not stated
B1 gave an EMP2 left on the cell surface, flow cytometry of EMP2-overexpressing NCI-H520 and NCI-A549 cells with or without FK002-exatecan (100 nM) for 48 h in the test with hEMP2-GFP [1] of less than 35%.

B2: FK002 antibody (mouse mAb) (antibody, V domains shown)
VH: DVQLQESGPGLVKPSQSLSLTCSVTGYSITSGYYWNWIRQFPGNKLEWMGYIRYDGRNNYNPSLKNRISITRDTSKNQFFLKLNSVTTEDTATYYCARDFDYWGQGTTLTVSS
VL: DIVLTQSPASLAVSLGQRATISCRASESVDTYGNSFMHWYQQKPGQPPKLLIYRASNLESGIPARFSGSGSRTDFTLTINPVEADDVATYYCHQSNEDPDTFGGGTKLEIK
notes: V region of the printed chimeric heavy chain; mouse IgG heavy constant region; V region of the printed chimeric light chain; mouse light constant region; Flow cytometry, immunofluorescence, immunoblot and dot blot used the mouse mAb (anti-mouse secondary antibodies); also called FK002Ab; FK002 mAb; source: hybridoma, mouse ascites (from Abmart)
Broadly, the koff is a measure of how fast the partners let go of each other. The Kd is the free concentration of one partner at which half of the binding sites on the other are occupied at equilibrium, for simple one-to-one binding. Higher therefore signals a looser complex. In the case of B2, the binding result (with hEMP2-GFP [2]; in test [3]; in test [6]) was “binds” each time. For the same molecule, the koff with Purified EMP2 protein [4] turned out to be 0.00328 s⁻¹. This molecule also gave an equilibrium dissociation constant (Kd) with Purified EMP2 protein [5] of 40.3 nM.
